Patent US20220125947A1

Key:
[1] = molecular target: Vg9/Vd2 T cell receptor on SKW3_4 cells (UniProt Q99603); experiment: flow cytometry, dose-response binding at 37 C on SKW3_4 cells expressing Vg9/Vd2
[2] = molecular target: Vg9/Vd1 T cell receptor on SKW3 cells (UniProt Q99603); experiment: flow cytometry, dose-response binding at 37 C on SKW3 cells expressing Vg9/Vd1
[3] = molecular target: Vg5/Vd2 T cell receptor on SKW3 cells (UniProt A0JD36); experiment: flow cytometry, dose-response binding at 37 C on SKW3 cells expressing Vg5/Vd2
[4] = molecular target: Vg9/Vd2 T cell receptor on SKW3_4 cells (UniProt Q99603); experiment: flow cytometry, DRC binding at 37°C on SKW3_4 cells expressing Vg9/Vd2
[5] = molecular target: Vg5/Vd2 T cell receptor on SKW3 cells (UniProt A0JD36); experiment: flow cytometry, DRC binding at 37°C on SKW3 cells expressing Vg5/Vd2
[6] = molecular target: Vg9/Vd1 T cell receptor on SKW3 cells (UniProt Q99603); experiment: flow cytometry, DRC binding at 37°C on SKW3 cells expressing Vg9/Vd1
[7] = molecular target: Vg5/Vd2 T cell receptor expressed on SKW3 cells (UniProt A0JD36); experiment: flow cytometry, dose-response binding at 37 C, SKW3 cells expressing Vg5/Vd2
[8] = molecular target: Vg9/Vd2 T cell receptor expressed on SKW3_4 cells (UniProt Q99603); experiment: flow cytometry, dose-response binding at 37 C, SKW3_4 cells expressing Vg9/Vd2
[9] = molecular target: Vg9/Vd1 T cell receptor expressed on SKW3 cells (UniProt Q99603); experiment: flow cytometry, dose-response binding at 37 C, SKW3 cells expressing Vg9/Vd1
Vg9/Vd1 T cell receptor expressed on SKW3 cells, sequence (Q99603 21-122): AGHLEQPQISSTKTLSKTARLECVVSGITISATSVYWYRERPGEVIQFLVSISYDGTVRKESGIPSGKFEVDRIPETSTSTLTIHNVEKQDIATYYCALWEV

Vg9/Vd1 T cell receptor on SKW3 cells, sequence (Q99603 21-122): as above
Vg9/Vd2 T cell receptor expressed on SKW3_4 cells, sequence (Q99603 21-122, chain 1 of 2): as the sequence (Q99603 21-122) above
Vg9/Vd2 T cell receptor expressed on SKW3_4 cells, sequence (A0JD36 20-115, chain 2 of 2, further chain): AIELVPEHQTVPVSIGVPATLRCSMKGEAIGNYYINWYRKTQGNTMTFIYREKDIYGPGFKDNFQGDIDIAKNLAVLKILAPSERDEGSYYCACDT
Vg9/Vd2 T cell receptor on SKW3_4 cells, sequence (Q99603 21-122, chain 1 of 2): as the sequence (Q99603 21-122) above
Vg9/Vd2 T cell receptor on SKW3_4 cells, sequence (A0JD36 20-115, chain 2 of 2, further chain): as the sequence (A0JD36 20-115, chain 2 of 2, further chain) above
Vg5/Vd2 T cell receptor on SKW3 cells, sequence (A0JD36 20-115): as the sequence (A0JD36 20-115, chain 2 of 2, further chain) above
Vg5/Vd2 T cell receptor expressed on SKW3 cells, sequence (A0JD36 20-115): as the sequence (A0JD36 20-115, chain 2 of 2, further chain) above

Binder | Max. Activity (fold over background) [4] | Max. Activity (fold over background) [5] | Max. Activity (fold over background) [6] | Max. Activity (fold over background) [7] | Max. Activity (fold over background) [8] | Max. Activity (fold over background) [9] | other results
VG9B143 (antibody, human IgG1, lambda, V domains shown) VH: EVQLVESGGGLVQPGGSLRLSCAASGFTFSTYGMNWVRQAPGKGLEWISYISTSSYTIYYSDSVKGRFTVSRDNAKNSLYLQMNSLRDEDTAVYYCAREGDWWYFDLWGRGTTVTVSS VL: QSALTQPASVSGSPGQSITISCTGTSSDVGGYNYVSWYQQHPGKAPKLMIYEVSNRPSGVSYRFSGSKSGNTASLTISGLQAEDEADYYCSSYTSSSTLVFGGGTKLTVLG |  |  |  |  |  |  | Max. Activity (fold over background) [1]: 97.3; Max. Activity (fold over background) [2]: 241; Max. Activity (fold over background) [3]: 1.07
VG9B194 (antibody, human IgG1, lambda, V domains shown) VH: EVQLLESGAEVKKPGASVKVSCKASGYTFTGDYMHWVRQAPGQGLEWMGWINPNSGYTNNAEKFQGRVTMTRDTSISTAYMELSRLSSDDTAVYYCTRELDALDVWGQGTMVTVSS VL: QSVLTQPPSASGSPGQSVTISCTGTSSDVGGYNYVSWYQQHPGKAPKLMIYEVSKRPSGVPDRFSGSKSGNTASLTVSGLQAEDEADYYCNSYAGSNNFEVFGGGTKVTVLG | 151 | 148 | 6.29 |  |  |  | 
VG9B396 (antibody, human IgG1, lambda, V domains shown) VH: EVQLVESGPGLVQPSETLSLTCTVSGDSIRGYYWNWIRQPAGKGLEWIGRIFTTGNTNYNPSLKSRLTMSLDTSKNQFSLKLNSVTAADTAVYYCAREKWDSSSSALYFDFWGQGTLVTVSS VL: QSVLTQAPSVSGAPGQRVTISCTGSSSNIGADYDVKWYQQLPGTAPKLLIYGNTDRPSGVPDRFSGSKSGTSASLAITGLQAEDEADYYCQSYDSRLTGYVVFGGGTKLTVLG | 155 | 222 | 2.19 |  |  |  | 
VG9B382 (antibody, human IgG1, lambda, V domains shown) VH: QVQLQESGPGLVKPSETLSLTCTVSGDSISGYYWNYIRQPAGKGLDWIGRIFTTGNTNYNPSLKSRVTMSVDTSKNQFSLKLTSVTAADTAVYYCARERWDSSSSALYFDYWGQGTLVTVSS VL: QSVLTQPPSVSGAPGQRVTISCTGSSSNIGADYDIKWYQQLPGTAPKLLIYGNSNRPSGVPDRFSGSKSGTSVSLAITGLQAEDEADYYCQSYDSSMSGYVVFGGGTKLTVLG | 177 | 275 | 1.04 |  |  |  | 
VG9B81 (antibody, human IgG1, kappa, V domains shown) VH: QVQLQESGPGLVKPSETLSLTCSVSGGSINTYYWSWFRQPAGKGLELIGRIYTSDNTNYNPSLKSRVTMSVDTSKNQFSLKLSSVTAADTAVYYCARYNWNYWYFDLWGRGTLVTVSS VL: DIQMTQSPSFLSASVRDRVNITCRASQGISSYLAWYQQKPGKAPKLLIYTASTLQSGVPSRFSGSGSGTEFTLTISSLQPEDFATYYCQHLNSYPYTFGQGTKVEIKR |  |  |  | 77 | 42.2 | 1.17 | 
VG9B58 (antibody, human IgG1, kappa, V domains shown) VH: QVQLQESGPGLVKPSETLSLTCTVSGGSIKSSYWTWIRQPPGKGLEWIGYMFYLGSTNYNPSLKSRVTMSIDTSRNQFSLKLSSVTAADTAVYYCSRERPVLDAFDIWGQGTMVTVSS VL: DIQMTQSPSAMSASVGDRVTITCRASQDITNYLAWFQQKPGKVPKRLIYAASSLQGGVPSRFSGSGSGTEFTLTISSLQPEDFSTYYCLQHDTYPYTFGQGTKVDIKR |  |  |  |  |  |  | Max. Activity (fold over background) [1]: 160; Max. Activity (fold over background) [2]: 350; Max. Activity (fold over background) [3]: 1.49
VG9B201 (antibody, human IgG1, lambda, V domains shown) VH: QVTLKESGPTLVKPTQTLTLTCTFSGFSLTTHGVGVGWIRQPPRKALEWLALIYWNADKHYSPSLKSRLTITKDTSKNQVVLTMTHMDPVDTATYYCAHEGDWGHYFDFWGQGTLVTVSS VL: QLVLTQPPSVSAAPGQKVTISCSGSSSNIGNNDVSWYQQLPGTAPKLLIYDNNRRPSGIPDRFSGSKSGTSATLGITGLQTGDEADYYCETWDSSLSAIWVFGGGTKVTVLG | 152 | 205 | 2.74 |  |  |  | 
VG9B411 (antibody, human IgG1, kappa, V domains shown) VH: EVQLVESGGGLVKPGGSLRLSCSASGFTFSNYDMNWVRQAPGKGLEWVSSISSSSSYIYYADSVKGRFTISRDNAKNSLYLQMNSLRAEDTAVYHCARDVGVTTDYYYYGMDVWGQGTTVTVSS VL: EIVMTQSPSSVSASVGDRVTITCRASQGINSWLAWYQQDPYKAPKLLIYAASTLQSGVPSRFGGRGSGTEFTLTISSLQPEDFAVYYCQQYNNWPRTFGQGTKVDIKR | 19.1 | 2.76 | 24.9 |  |  |  | 
VG9B470 (antibody, human IgG1, kappa, V domains shown) VH: QVTLKESGPTLVKPTQTLTLTCTFSGFSLTTSGVGVGWIRQPPGKALEWLALILWNDHTIYSPSLKSRLTITKDTSKNQVVLTMTNMDPVDTAAYFCARDKWELRDAFDIWGQGTMVTVSS VL: EIVMTQSPSFLSASVGDRVTFTCRASQGISRYLAWYQQKPGRAPNLLIYVASTLQSGVPSRFSGSGSGTEFTLTISSLLPEDFATYYCQQLISYPYTFSQGTRLEIKR | 167 | 231 | 1.59 |  |  |  | 
VG9B103 (antibody, human IgG1, kappa, V domains shown) VH: EVQLVQSGAEVKKPGSSVKVSCKTSGGTFSSYAISWVRQAPGQGLEWMGGIIPIFGTATYAQKFQDRVTITADKSTSTAYMELSSLRSEDTAVFYCARGVGWGTDYYYGLDVWGQGTTVTVSS VL: ETTLTQSPLSSPVTLGQPASISCRSSQGLVHSDGNTYLSWLQQRPGQSPRLLIYKISNRFSGVPDRFSGSGAGTDFTLKISRVEAEDVGVYYCMQATHHPLTFGGGTKVEIKR |  |  |  | 237 | 96.4 | 1.79 | 
VG9B383 (antibody, human IgG1, lambda, V domains shown) VH: QVQLQESGPGLVKPSETLSLTCTVSSGSISSYYWNWIRQPAGKGLEWVGRIYTIGNTNYNPSLKSRVTMSIDTSKNQFSLNLSSVTAADTAVYFCAREGYYDSSGSFFPGAFGIWGQGTMVTVSS VL: SSELTQPASVSGSPGQSITISCTGTSNDVGSYNLVSWYQQHPGKAPKLMIYAGSKRPSGISNRFSGSKSGNTASLTISGLQAEDEADYYCCSFAGATNVVFGGGTKLTVLG | 184 | 284 | 1.36 |  |  |  | 
VG9B465 (antibody, human IgG1, lambda, V domains shown) VH: QVQLQQSGPGLVKPSETLSLTCTVSGGSITSYYWNWIRQPAGKGLEWIGRIYTIGNTNYNPSLKSRVTMSIDTSKHQFSLKLSSVTGADTAVYYCAREGYYESDGSFFPGAFNIWGQGTMVTVSS VL: SSELTQPASVSGSPGQSITISCTGTSNDVGSYNLVSWYQQHPGKAPKLMIYAGSKRPSGISNRFSGSKSGNTASLTISGLQAEDEADYYCCSYAGTTNVVFGGGTKVTVLG | 148 | 214 | 7.28 |  |  |  | 
VG9B203 (antibody, human IgG1, lambda, V domains shown) VH: QVQLVQSGPGLVKPSETLSLTCTVSGDSIGHYYWNWIRQPAGKGLEWIGRIYTSGSTNYNPSLKSRVTMSVDTSKNQFSLKLSSVTAADTAVYYCARSGGNFYWYFDLWGRGTLVTVSS VL: QSVLTQPPSVSAAPGQKVTISCSGSSSNIGNNYVSWYQQVPGTAPKLLIYDNNKRPSGIPDRISGSKSGTSATLGITGLQTGDEADYYCGTWDSSLSAGVFGGGTKVTVLG |  |  |  | 194 | 143 | 1.3 | 
VG9B163 (antibody, human IgG1, lambda, V domains shown) VH: QVQLVQSGGGLVKPGASLKLSCAASGFTFSNHGMSWVRQTSDKRLEWVASITRGGDTTYYPDNVKGRFTISRENAKNTLYLQMSSLKSDDTALYYCTRGPLTVGYAMDYWGQGTTVTVSS VL: QLVLTQPPSVSAAPGQKVTISCSGNSSNIGHNYVSWYQQLPGTAPKLLIYDNNQRPSGIPDRFSGSKSDTSATLGITGLQTGDEADYYCGIWDSSLSIVVFGGGTKVTVLG |  |  |  | 48.9 | 57.2 | 10.6 | 
VG9B380 (antibody, human IgG1, lambda, V domains shown) VH: QVQLQESGPGLVKPSETLSLTCTVSGGSISNYYWSWIRQPAGKGLEWIGRIYPSGITSYDPSLKSRVTMSLDTSKNQFSLKLTSVTAADTAVYYCAGIMGTKGAFDIWGQGTMVTVSS VL: QSALTQPASVSGSPGQSITISCTGTSSDVGGYNYVSWYQQHPGKAPKLLIYEVSNRPSGVSNRFSGSKSGSTASLTISGLQAEDEADYYCSSYTSTSVVFGGGTKLTVLG |  |  |  | 233 | 164 | 11.6 | 
VG9B86 (antibody, human IgG1, kappa, V domains shown) VH: QVQLQESGPGLVKPSETLSLTCTVSGDSISSSYWSWIRQPAGKGLECIGRFYSSGSTSYNPSLKSRVTMAIDTSKNQFSLKLTSVTAADTAVYYCARYSGSYWYFDLWGRGTTVTVSS VL: EIVLTQSPATLSLSPGERATLSCRASQSVSSYLAWYQQRPGQAPRLLIYDTSNRATGIPARFSGSGSGTDFTLTISSLAPEDFAVYYCQQRSDWLLTFGGGTKVEIKR | 138 | 207 | 1.16 |  |  |  | 
